Laboratory results as given in patent US9951373B2, “Oplophorus-derived luciferases, novel coelenterazine substrates, and methods of use” (Promega Corporation, priority 2010, dated 2018).

Tests used:
[1] = Exposure of OgLuc variant to urea; assay type: physicochemical; conditions: 3 M urea, 30 min at 25° C.
Description: Since Firefly luciferase is known to be relatively unstable, it is much more sensitive to urea exposure. To determine whether this was also the case with the OgLuc variants, the sensitivity of the OgLuc to urea was determined 5 μl of 45.3 μM L27V enzyme was mixed with 100 μL of a urea solution (100 mM MOPS, pH 7.2, 100 mM NaCl, 1 mM CDTA, 5% glycerol and various concentrations of urea) and incubated for 30 min at room temperature. 5 μL of the urea+L27V enzyme solution was diluted 10,000-fold into DMEM without phenol red+0.1% PRIONEX®, 50 μL was mixed with 50 μL of assay reagent containing 100 μM PBI-3939 (previously described) and the luminescence was read at 10 min. (FIG. 88).
A 0.31 mg/mL stock of purified L27V variant was diluted 100,000-fold into buffer (PBS+1 mM DTT+0.005% IGEPAL) and incubated with 3 M urea for 30 min at 25° C. and then mixed 1:1 (50 μL+50 μL) with an assay reagent containing 100 μM PBI-3939 (previously described). The reactions were read on a TECAN® INFINITE® F500 luminometer as described previously (for 100 min; 1 min read intervals) (FIG. 89).

[2] = Enzyme kinetics of OgLuc variants in E. coli lysates; assay type: biochemical; conditions: PBI-3939, E. coli lysates
Description: Using methods known in the art, enzyme kinetic assays measuring luminescence were performed with the lysates of E. coli containing IV and the IV variants 15C1, 9B8, 9F6, and 9A3. […] Two fold serial dilutions of PBI-3939 in the assay buffer described previously in Example 26 were assayed with the diluted lysates. […] Variants 9B8 and 9F6 had higher Km values compared to IV while Km values for the other variants were unchanged.
Luminescence was measured on a TECAN® INFINITE® F500 luminometer.
The enzyme kinetics values were determined for the OgLuc variants as described previously, except luminescence was measured using a GLOMAX® luminometer. Three replicates were used for each variant.

HEK293 cells = experiment: Luminescence in sandwich background, HEK293 cells; assay type: cell-based, human; conditions: non-sandwich versus sandwich
Description: The PCR library in the Id-OgLuc-HT7 sandwich background was screened for additional variants with increased luminescence compared to 9B8 opt+K33N in sandwich background. Selected variants were then assayed in HEK293 and NIH3T3 cells. […] 1F7 (F) (SEQ ID NOs: 84 and 85) and 15H1 (F) (SEQ ID NOs: 86 and 87) had at least 1.3 fold-increase in luminescence in E. coli. 1F7 (F) was brighter than 9B8 opt+K33N in the sandwich background in HEK293 and NIH3T3 cells.
The variants 9B8 opt+K33N+T39T+K43R+Y68D (“V2”; SEQ ID NOs: 92 and 93), 9B8 opt+K33N+L27V+K43R+Y68D (SEQ ID NOs: 339 and 340), 9B8 opt+K33N+L27V+T39T+K43R+S66N (SEQ ID NOs: 341 and 342), and 9B8 opt+K33N+L27V+T39T+K43R+Y68D (“L27V”; SEQ ID NOs: 88 and 89) were subcloned into the Id-OgLuc-HT7 sandwich background as described above and assayed in HEK293 and NIH3T3 cells as described above. The luminescence generated by the sandwiched variants were compared to the luminescence generated by the […] sandwich (SEQ ID NOs: 59 and 60) (Table 38). The L27V sandwich (SEQ ID NOs: 90 and 91) and V2 sandwich (SEQ ID NOs: 94 and 95) had at least 1.3× fold-increase in luminescence in HEK293 and NIH3T3 cells.
The sandwich and non-sandwich versions of the variants V2, 9B8 opt+K33N+L27V+K43R+Y68D, 9B8 opt+K33N+L27V+T39T+K43R+S66N, and L27V were assayed in HEK293 and NIH3T3 cells as described in Example 37. The luminescence generated by the non-sandwiched variants was compared to the luminescence generated by the sandwiched variants (Table 39).

caspase-3 [3] = molecular target: T1, caspase-3 (Homo sapiens, UniProt P42574); experiment: Bioluminescent caspase-3 assay with L27V variant; assay type: biochemical; conditions: luminescence, 3 hrs room temperature
T1 sequence (P42574 29-175 limits assumed): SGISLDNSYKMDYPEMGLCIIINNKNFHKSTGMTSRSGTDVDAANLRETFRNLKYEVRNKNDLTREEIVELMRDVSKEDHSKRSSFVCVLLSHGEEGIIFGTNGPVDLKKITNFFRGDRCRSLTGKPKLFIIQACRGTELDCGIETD
T1 sequence (P42574 176-277 limits assumed): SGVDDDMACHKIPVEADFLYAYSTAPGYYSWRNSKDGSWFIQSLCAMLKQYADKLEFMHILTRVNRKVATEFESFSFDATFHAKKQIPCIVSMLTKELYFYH
Description: (§1) 2. The L27V variant was used in a bioluminescent assay using a pro-coelenterazine substrate comprising the DEVD caspase-3 cleavage sequence. Purified caspase-3 enzyme (1 mg/mL) in 100 mM MES pH 6 (50 μL) was mixed with 227 nM L27V02 variant and 47 μM PBI-3741 (z-DEVD-coelenterazine-h) in assay buffer (50 μL). Reactions were incubated for 3 hrs at room temperature, and luminescence detected as previously described. The assay with the L27V variant was compared to a firefly luciferase version of the assay, CASPASE-GLO® 3/7-Assay system (Caspase-Glo; Promega Corp.).

caspase-3 [4] = experiment: Bioluminescent caspase-3 assay with L27V variant; assay type: biochemical; conditions: luminescence, 3 hrs room temperature
Description: as §1

NIH3T3 cells = experiment: Luminescence of OgLuc variants expressed in NIH3T3 cells; assay type: cell-based
Description: The PCR library in the pF4Ag-based non-fusion background was screened for additional variants with increased luminescence compared to 9B8 opt+K33N+170G (SEQ ID NOs: 68 and 69). Selected variants were then assayed in HEK293 and NIH3T3 cells. For each cell type, 15,000 cells were plated and grown overnight at 37° C. The next day, the cells were transfected as described in Example 25 with 10 ng pGL4.13 (Promega Corp.) as a transfection control and 100 ng of the OgLuc test DNA. The media was removed, and the cells were lysed with 100 μL of lysis buffer as described in Example 25 except the lysis buffer contained 100 mM MES pH 6.0 instead of HEPES, and luminescence measured using a GLOMAX® Luminometer.
Based on the above data, further combination variants were designed and generated (see Table 10) in the context of the pF4Ag-based non-fusion vector background without the 170G. The variants were analyzed in E. coli, HEK293 and NIH3T3 cells as described above and compared to 9B8 opt+K33N. The variants were also examined for luminescence with native coelenterazine.
The brightness of the variants expressed in HEK293 and NIH3T3 cells was measured as described previously. The luminescence of the variants was normalized to the luminescence generated by 9B8 opt (Table 27).

B1: L27V: 9B8 opt+K33N variant with L27V, T39T, K43R, Y68D (SEQ ID NO: 89) (protein)
chain: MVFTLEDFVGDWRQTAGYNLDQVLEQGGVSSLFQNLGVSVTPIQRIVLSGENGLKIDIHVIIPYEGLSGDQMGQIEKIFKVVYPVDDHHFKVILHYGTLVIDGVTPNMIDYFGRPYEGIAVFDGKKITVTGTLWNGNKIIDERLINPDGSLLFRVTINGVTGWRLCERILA
- reduction of activity [1]: approximately 50%
- Km [2]: 13.9 µM
- Vmax [2]: 190,000,000 RLU/0.5 sec
- Fold-decrease in luminescence in the presence of sandwich background, HEK 293 (HEK293 cells): 6
- (+) caspase (caspase-3 [3]): 11,532
- (−) caspase (caspase-3 [4]): 803
- luminescence normalized to 9B8 opt, NIH3T3 (NIH3T3 cells; PBI-3939): 1.6
- Fold over 9B8 opt + K33N, NIH3T3 (NIH3T3 cells; luminescence, PBI-3939): 0.7
- Fold over Native Coelenterazine, NIH3T3 (NIH3T3 cells; relative specificity for PBI-3939 compared to native coelenterazine): 85
